Experimental data published in patent US20200297818A1 (ZEALAND PHARMA A S, published 2020).

How the values were obtained:
[1] = target: human glucagon-like peptide 1 receptor (GLP-1 R) (human, UniProt P43220 24-463); assay: cell-based or functional assay
[2] = target: T1, human GLP-2 receptor (hGLP2-R) (human, UniProt O95838 1-553); assay: cell-based or functional assay
T1 sequence (looked up): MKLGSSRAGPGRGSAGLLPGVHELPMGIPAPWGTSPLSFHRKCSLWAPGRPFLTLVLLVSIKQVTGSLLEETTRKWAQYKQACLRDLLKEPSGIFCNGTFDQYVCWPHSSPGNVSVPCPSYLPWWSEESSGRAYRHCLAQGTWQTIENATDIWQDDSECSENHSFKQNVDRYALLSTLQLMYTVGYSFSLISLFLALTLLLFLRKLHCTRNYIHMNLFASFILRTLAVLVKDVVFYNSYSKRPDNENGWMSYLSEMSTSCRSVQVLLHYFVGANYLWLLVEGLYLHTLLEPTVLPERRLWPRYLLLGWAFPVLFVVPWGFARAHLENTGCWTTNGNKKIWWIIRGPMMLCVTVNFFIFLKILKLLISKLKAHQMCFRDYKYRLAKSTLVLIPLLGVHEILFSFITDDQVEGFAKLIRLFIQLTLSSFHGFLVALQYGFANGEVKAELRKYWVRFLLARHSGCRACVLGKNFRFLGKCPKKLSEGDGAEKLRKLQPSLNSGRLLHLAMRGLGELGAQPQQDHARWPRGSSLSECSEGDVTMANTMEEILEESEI

EC50 GLP-1 (nM); cAMP response [1]	EC50 GLP-2 (nM); cAMP response [2]	Binder
0.21 nM	0.17 nM	HXEGSFTSELATILDXQAARDFIAWLIEHKITD (HELM PEPTIDE1{H.[Aib].E.G.S.F.T.S.E.L.A.T.I.L.D.K.Q.A.A.R.D.F.I.A.W.L.I.E.H.K.I.T.D}|PEPTIDE2{[O=C(O)CCCCCCCCCCCCCCCCC(=O)[*:2]].[gGlu]}$PEPTIDE1,PEPTIDE2,16:R3-2:R2$$$V2.0; SMILES CC[C@H](C)[C@H](NC(=O)[C@H](Cc1ccccc1)NC(=O)[C@H](CC(=O)O)NC(=O)[C@H](CCCNC(=N)N)NC(=O)[C@H](C)NC(=O)[C@H](C)NC(=O)[C@H](CCC(N)=O)NC(=O)[C@H](CCCCNC(=O)CC[C@H](NC(=O)CCCCCCCCCCCCCCCCC(=O)O)C(=O)O)NC(=O)[C@H](CC(=O)O)NC(=O)[C@H](CC(C)C)NC(=O)[C@@H](NC(=O)[C@@H](NC(=O)[C@H](C)NC(=O)[C@H](CC(C)C)NC(=O)[C@H](CCC(=O)O)NC(=O)[C@H](CO)NC(=O)[C@@H](NC(=O)[C@H](Cc1ccccc1)NC(=O)[C@H](CO)NC(=O)CNC(=O)[C@H](CCC(=O)O)NC(=O)C(C)(C)NC(=O)[C@@H](N)Cc1c[nH]cn1)[C@@H](C)O)[C@@H](C)O)[C@@H](C)CC)C(=O)N[C@@H](C)C(=O)N[C@@H](Cc1c[nH]c2ccccc12)C(=O)N[C@@H](CC(C)C)C(=O)N[C@H](C(=O)N[C@@H](CCC(=O)O)C(=O)N[C@@H](Cc1c[nH]cn1)C(=O)N[C@@H](CCCCN)C(=O)N[C@H](C(=O)N[C@H](C(=O)N[C@@H](CC(=O)O)C(=O)O)[C@@H](C)O)[C@@H](C)CC)[C@@H](C)CC) [Compound 24]
0.094 nM	0.33 nM	HXEGTFTSELATILDXQAARDFIAWLIEHKITD (HELM PEPTIDE1{H.[Aib].E.G.T.F.T.S.E.L.A.T.I.L.D.K.Q.A.A.R.D.F.I.A.W.L.I.E.H.K.I.T.D}|PEPTIDE2{[O=C(O)CCCCCCCCCCCCCCCCC(=O)[*:2]].[gGlu]}$PEPTIDE1,PEPTIDE2,16:R3-2:R2$$$V2.0; SMILES CC[C@H](C)[C@H](NC(=O)[C@H](Cc1ccccc1)NC(=O)[C@H](CC(=O)O)NC(=O)[C@H](CCCNC(=N)N)NC(=O)[C@H](C)NC(=O)[C@H](C)NC(=O)[C@H](CCC(N)=O)NC(=O)[C@H](CCCCNC(=O)CC[C@H](NC(=O)CCCCCCCCCCCCCCCCC(=O)O)C(=O)O)NC(=O)[C@H](CC(=O)O)NC(=O)[C@H](CC(C)C)NC(=O)[C@@H](NC(=O)[C@@H](NC(=O)[C@H](C)NC(=O)[C@H](CC(C)C)NC(=O)[C@H](CCC(=O)O)NC(=O)[C@H](CO)NC(=O)[C@@H](NC(=O)[C@H](Cc1ccccc1)NC(=O)[C@@H](NC(=O)CNC(=O)[C@H](CCC(=O)O)NC(=O)C(C)(C)NC(=O)[C@@H](N)Cc1c[nH]cn1)[C@@H](C)O)[C@@H](C)O)[C@@H](C)O)[C@@H](C)CC)C(=O)N[C@@H](C)C(=O)N[C@@H](Cc1c[nH]c2ccccc12)C(=O)N[C@@H](CC(C)C)C(=O)N[C@H](C(=O)N[C@@H](CCC(=O)O)C(=O)N[C@@H](Cc1c[nH]cn1)C(=O)N[C@@H](CCCCN)C(=O)N[C@H](C(=O)N[C@H](C(=O)N[C@@H](CC(=O)O)C(=O)O)[C@@H](C)O)[C@@H](C)CC)[C@@H](C)CC) [Compound 25]
0.29 nM	0.59 nM	HXEGSFTSELATILDXQAARDFIAWLIHHKITD (HELM PEPTIDE1{H.[Aib].E.G.S.F.T.S.E.L.A.T.I.L.D.K.Q.A.A.R.D.F.I.A.W.L.I.H.H.K.I.T.D}|PEPTIDE2{[O=C(O)CCCCCCCCCCCCCCCCC(=O)[*:2]].[gGlu]}$PEPTIDE1,PEPTIDE2,16:R3-2:R2$$$V2.0; SMILES CC[C@H](C)[C@H](NC(=O)[C@H](Cc1ccccc1)NC(=O)[C@H](CC(=O)O)NC(=O)[C@H](CCCNC(=N)N)NC(=O)[C@H](C)NC(=O)[C@H](C)NC(=O)[C@H](CCC(N)=O)NC(=O)[C@H](CCCCNC(=O)CC[C@H](NC(=O)CCCCCCCCCCCCCCCCC(=O)O)C(=O)O)NC(=O)[C@H](CC(=O)O)NC(=O)[C@H](CC(C)C)NC(=O)[C@@H](NC(=O)[C@@H](NC(=O)[C@H](C)NC(=O)[C@H](CC(C)C)NC(=O)[C@H](CCC(=O)O)NC(=O)[C@H](CO)NC(=O)[C@@H](NC(=O)[C@H](Cc1ccccc1)NC(=O)[C@H](CO)NC(=O)CNC(=O)[C@H](CCC(=O)O)NC(=O)C(C)(C)NC(=O)[C@@H](N)Cc1c[nH]cn1)[C@@H](C)O)[C@@H](C)O)[C@@H](C)CC)C(=O)N[C@@H](C)C(=O)N[C@@H](Cc1c[nH]c2ccccc12)C(=O)N[C@@H](CC(C)C)C(=O)N[C@H](C(=O)N[C@@H](Cc1c[nH]cn1)C(=O)N[C@@H](Cc1c[nH]cn1)C(=O)N[C@@H](CCCCN)C(=O)N[C@H](C(=O)N[C@H](C(=O)N[C@@H](CC(=O)O)C(=O)O)[C@@H](C)O)[C@@H](C)CC)[C@@H](C)CC) [Compound 26]
0.45 nM	1.1 nM	HXEGSFTSELATILDXQAARDFIAWLIYHKITD (HELM PEPTIDE1{H.[Aib].E.G.S.F.T.S.E.L.A.T.I.L.D.K.Q.A.A.R.D.F.I.A.W.L.I.Y.H.K.I.T.D}|PEPTIDE2{[O=C(O)CCCCCCCCCCCCCCCCC(=O)[*:2]].[gGlu]}$PEPTIDE1,PEPTIDE2,16:R3-2:R2$$$V2.0; SMILES CC[C@H](C)[C@H](NC(=O)[C@H](Cc1ccccc1)NC(=O)[C@H](CC(=O)O)NC(=O)[C@H](CCCNC(=N)N)NC(=O)[C@H](C)NC(=O)[C@H](C)NC(=O)[C@H](CCC(N)=O)NC(=O)[C@H](CCCCNC(=O)CC[C@H](NC(=O)CCCCCCCCCCCCCCCCC(=O)O)C(=O)O)NC(=O)[C@H](CC(=O)O)NC(=O)[C@H](CC(C)C)NC(=O)[C@@H](NC(=O)[C@@H](NC(=O)[C@H](C)NC(=O)[C@H](CC(C)C)NC(=O)[C@H](CCC(=O)O)NC(=O)[C@H](CO)NC(=O)[C@@H](NC(=O)[C@H](Cc1ccccc1)NC(=O)[C@H](CO)NC(=O)CNC(=O)[C@H](CCC(=O)O)NC(=O)C(C)(C)NC(=O)[C@@H](N)Cc1c[nH]cn1)[C@@H](C)O)[C@@H](C)O)[C@@H](C)CC)C(=O)N[C@@H](C)C(=O)N[C@@H](Cc1c[nH]c2ccccc12)C(=O)N[C@@H](CC(C)C)C(=O)N[C@H](C(=O)N[C@@H](Cc1ccc(O)cc1)C(=O)N[C@@H](Cc1c[nH]cn1)C(=O)N[C@@H](CCCCN)C(=O)N[C@H](C(=O)N[C@H](C(=O)N[C@@H](CC(=O)O)C(=O)O)[C@@H](C)O)[C@@H](C)CC)[C@@H](C)CC) [Compound 27]
